Data as given in publication PMC10786891, “Massively parallel profiling of RNA-targeting CRISPR-Cas13d”.
Numbering of substitutions follows the chain as printed. Numbers in names are those of the source.

T1: EsCas13d, nuclease-dead (Eubacterium siraeum, UniProt B0MS50, R295A;H300A;R849A;H854A)
T1 sequence: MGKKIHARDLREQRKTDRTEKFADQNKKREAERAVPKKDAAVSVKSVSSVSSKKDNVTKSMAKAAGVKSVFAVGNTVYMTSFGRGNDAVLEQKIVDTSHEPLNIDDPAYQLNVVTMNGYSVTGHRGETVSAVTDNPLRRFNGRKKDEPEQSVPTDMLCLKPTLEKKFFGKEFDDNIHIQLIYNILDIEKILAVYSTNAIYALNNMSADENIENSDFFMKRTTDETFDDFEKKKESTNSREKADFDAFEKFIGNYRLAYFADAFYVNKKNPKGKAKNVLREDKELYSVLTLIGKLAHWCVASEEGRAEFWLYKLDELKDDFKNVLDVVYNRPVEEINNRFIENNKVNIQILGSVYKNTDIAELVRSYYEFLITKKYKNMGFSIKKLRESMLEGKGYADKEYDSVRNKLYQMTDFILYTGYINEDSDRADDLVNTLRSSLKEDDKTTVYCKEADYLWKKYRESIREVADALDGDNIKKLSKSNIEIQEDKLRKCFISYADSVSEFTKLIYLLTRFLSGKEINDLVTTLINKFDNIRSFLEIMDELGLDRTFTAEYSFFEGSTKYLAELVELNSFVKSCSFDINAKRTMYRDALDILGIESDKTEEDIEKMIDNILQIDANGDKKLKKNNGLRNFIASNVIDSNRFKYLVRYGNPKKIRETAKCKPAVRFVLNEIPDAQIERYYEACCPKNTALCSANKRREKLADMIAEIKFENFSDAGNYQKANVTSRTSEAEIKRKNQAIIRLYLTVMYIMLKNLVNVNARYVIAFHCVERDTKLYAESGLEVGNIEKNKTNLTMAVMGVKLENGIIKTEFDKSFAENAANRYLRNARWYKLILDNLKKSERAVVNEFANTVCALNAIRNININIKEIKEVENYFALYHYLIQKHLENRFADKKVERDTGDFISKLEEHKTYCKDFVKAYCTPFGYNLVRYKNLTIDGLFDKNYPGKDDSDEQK

B1: target 1 MT 5'PFS UCC 3'PFS UGC (mixed)
RNA 1: CACCCGUGCAAAAAUGCAGGGGUCUAAAACUGAGCGGAUAACCUCUCUAUGG
RNA 2: GGGAAUGGAUCCACAUCUACGAAUUCUCCCCAUAGAGAGGUUAUCCGCUCAUGCAGAUCGGAAGAGCACACGU
B2: target 1 MT 5'PFS UCA 3'PFS CGU (mixed)
RNA 1: B1 RNA 1
RNA 2: B1 RNA 2 with C29A, U52C, C54U
B3: target 1 MT 5'PFS AGU 3'PFS ACA (mixed)
RNA 1: B1 RNA 1
RNA 2: B1 RNA 2 with U27A, C28G, C29U, U52A, G53C, C54A
B4: target 1 MT 5'PFS GGG 3'PFS UAU (mixed)
RNA 1: B1 RNA 1
RNA 2: B1 RNA 2 with U27G, C28G, C29G, G53A, C54U
B5: target 1 MT 5'PFS GGA 3'PFS CUU (mixed)
RNA 1: B1 RNA 1
RNA 2: B1 RNA 2 with U27G, C28G, C29A, U52C, G53U, C54U
B6: target 1 MT 5'PFS UAA 3'PFS UCU (mixed)
RNA 1: B1 RNA 1
RNA 2: B1 RNA 2 with C28A, C29A, G53C, C54U
B7: target 1 insA 3' of 19,insA 3' of 7 (mixed)
RNA 1: B1 RNA 1
RNA 2: GGGAAUGGAUCCACAUCUACGAAUUCGUACCAUAAGAGAGGUUAUCACGCUCACCGAGAUCGGAAGAGCACACGU
B8: target 1 MT 5'PFS CCA 3'PFS UGC (mixed)
RNA 1: B1 RNA 1
RNA 2: B1 RNA 2 with U27C, C29A
B9: target 1 MT 5'PFS GGG 3'PFS UAC (mixed)
RNA 1: B1 RNA 1
RNA 2: B1 RNA 2 with U27G, C28G, C29G, G53A
B10: target 1 MT 5'PFS GGC 3'PFS CAU (mixed)
RNA 1: B1 RNA 1
RNA 2: B1 RNA 2 with U27G, C28G, U52C, G53A, C54U
B11: target 1 MT 5'PFS CCA 3'PFS UGA (mixed)
RNA 1: B1 RNA 1
RNA 2: B1 RNA 2 with U27C, C29A, C54A
B12: target 1 MT 5'PFS UAA 3'PFS AUG (mixed)
RNA 1: B1 RNA 1
RNA 2: B1 RNA 2 with C28A, C29A, U52A, G53U, C54G
B13: target 1 MT 5'PFS AGU 3'PFS ACU (mixed)
RNA 1: B1 RNA 1
RNA 2: B1 RNA 2 with U27A, C28G, C29U, U52A, G53C, C54U
B14: target 1 MT 5'PFS UAG 3'PFS AGG (mixed)
RNA 1: B1 RNA 1
RNA 2: B1 RNA 2 with C28A, C29G, U52A, C54G
B15: target 1 MT 5'PFS GGG 3'PFS UAG (mixed)
RNA 1: B1 RNA 1
RNA 2: B1 RNA 2 with U27G, C28G, C29G, G53A, C54G
B16: target 1 MT 5'PFS UCC 3'PFS UGU (mixed)
RNA 1: B1 RNA 1
RNA 2: B1 RNA 2 with C54U
B17: target 1 MT 5'PFS GGA 3'PFS CUG (mixed)
RNA 1: B1 RNA 1
RNA 2: B1 RNA 2 with U27G, C28G, C29A, U52C, G53U, C54G
B18: target 1 MT 5'PFS UCA 3'PFS CGA (mixed)
RNA 1: B1 RNA 1
RNA 2: B1 RNA 2 with C29A, U52C, C54A
B19: target 1 MT 5'PFS GCC 3'PFS UUU (mixed)
RNA 1: B1 RNA 1
RNA 2: B1 RNA 2 with U27G, G53U, C54U
B20: target 1 MT 5'PFS AGU 3'PFS ACG (mixed)
RNA 1: B1 RNA 1
RNA 2: B1 RNA 2 with U27A, C28G, C29U, U52A, G53C, C54G
B21: target 1 MT 5'PFS GCC 3'PFS UUG (mixed)
RNA 1: B1 RNA 1
RNA 2: B1 RNA 2 with U27G, G53U, C54G
B22: target 1 MT 5'PFS GCC 3'PFS UUA (mixed)
RNA 1: B1 RNA 1
RNA 2: B1 RNA 2 with U27G, G53U, C54A
B23: target 1 MT 5'PFS CUC 3'PFS UGC (mixed)
RNA 1: B1 RNA 1
RNA 2: B1 RNA 2 with U27C, C28U
B24: target 1 C2G,U10G (mixed)
RNA 1: B1 RNA 1
RNA 2: B1 RNA 2 with U27G, C28U, C29A, U42G, C50G, U52C, G53C, C54G
B25: target 1 MT 5'PFS UAA 3'PFS AUA (mixed)
RNA 1: B1 RNA 1
RNA 2: B1 RNA 2 with C28A, C29A, U52A, G53U, C54A
B26: target 1 MT 5'PFS AGU 3'PFS ACC (mixed)
RNA 1: B1 RNA 1
RNA 2: B1 RNA 2 with U27A, C28G, C29U, U52A, G53C
B27: target 1 MT 5'PFS UAA 3'PFS UCC (mixed)
RNA 1: B1 RNA 1
RNA 2: B1 RNA 2 with C28A, C29A, G53C
B28: target 1 MT 5'PFS UAA 3'PFS UCA (mixed)
RNA 1: B1 RNA 1
RNA 2: B1 RNA 2 with C28A, C29A, G53C, C54A
B29: target 1 U3G,G5C (mixed)
RNA 1: B1 RNA 1
RNA 2: B1 RNA 2 with U27G, C28U, C29A, G47C, U49G, U52C, G53C, C54G
B30: target 1 MT 5'PFS GCC 3'PFS UUC (mixed)
RNA 1: B1 RNA 1
RNA 2: B1 RNA 2 with U27G, G53U
B31: target 1 insG 3' of 22,insG 3' of 6 (mixed)
RNA 1: B1 RNA 1
RNA 2: B7 RNA 2 with C31G, A32C, U33A, A34U, A47C, C48G
B32: target 1 MT 5'PFS GGC 3'PFS CAA (mixed)
RNA 1: B1 RNA 1
RNA 2: B1 RNA 2 with U27G, C28G, U52C, G53A, C54A
B33: target 1 MT 5'PFS UCA 3'PFS ACA (mixed)
RNA 1: B1 RNA 1
RNA 2: B1 RNA 2 with C29A, U52A, G53C, C54A
B34: target 1 MT 5'PFS UGG 3'PFS CCG (mixed)
RNA 1: B1 RNA 1
RNA 2: B1 RNA 2 with C28G, C29G, U52C, G53C, C54G
B35: target 1 MT 5'PFS GCC 3'PFS CAG (mixed)
RNA 1: B1 RNA 1
RNA 2: B1 RNA 2 with U27G, U52C, G53A, C54G
B36: target 1 MT 5'PFS GGG 3'PFS UAA (mixed)
RNA 1: B1 RNA 1
RNA 2: B1 RNA 2 with U27G, C28G, C29G, G53A, C54A
B37: target 1 MT 5'PFS GUU 3'PFS AUU (mixed)
RNA 1: B1 RNA 1
RNA 2: B1 RNA 2 with U27G, C28U, C29U, U52A, G53U, C54U
B38: target 1 MT 5'PFS UAA 3'PFS AUC (mixed)
RNA 1: B1 RNA 1
RNA 2: B1 RNA 2 with C28A, C29A, U52A, G53U
B39: target 1 insU 3' of 14,insA 3' of 8 (mixed)
RNA 1: B1 RNA 1
RNA 2: B7 RNA 2 with A35G, G36A, A37G, G38A, A39U, C46A, A47C

Target: T1, EsCas13d, nuclease-dead
Assay: crRNA (strand 1, pre-loaded); Mg2+; 40 mM Tris-HCl pH 7.5, 150 mM NaCl, 6 mM MgCl2, 1 mM DTT, 0.1% Tween-20, 0.2 mg/ml BSA; 25 C; 10 min per concentration, then washed
Details: tags: His6-TwinStrep-SUMO cleaved; N-terminal SNAP kept (SNAP-Surface 488); label: 3' end held by stalled T7 RNA polymerase

| Binder | Kd [nM] |
| --- | --- |
| B1 | ~12.5 |
| B2 | 18.5 ± 6.5 |
| B3 | 65 ± 29 |
| B4 | 16.7 ± 3.25 |
| B5 | 13 ± 4.5 |
| B6 | 44.5 ± 15 |
| B7 | 15.2 ± 1.4 |
| B8 | 3.55 ± 0.8 |
| B9 | 16.8 ± 2.75 |
| B10 | 15.7 ± 5.5 |
| B11 | 13 ± 4.5 |
| B12 | 57.5 ± 16 |
| B13 | 38 ± 11 |
| B14 | 65.5 ± 15 |
| B15 | 16.1 ± 2.1 |
| B16 | ~70 |
| B17 | 11.3 ± 1.9 |
| B18 | 12.2 ± 3.45 |
| B19 | 9.4 ± 2 |
| B20 | 36 ± 10 |

| Binder | Kd [nM] |
| --- | --- |
| B21 | 8.2 ± 1.1 |
| B22 | 12.5 ± 3.7 |
| B23 | ~60 |
| B24 | 42 ± 7 |
| B25 | 47 ± 13.5 |
| B26 | ~80 |
| B27 | 82.5 ± 27.5 |
| B28 | 32 ± 9.5 |
| B29 | 16.7 ± 1.1 |
| B30 | 17 ± 5.5 |
| B31 | 51 ± 10 |
| B32 | ~34 |
| B33 | 13.2 ± 3.35 |
| B34 | 47 ± 9.5 |
| B35 | 44 ± 21 |
| B36 | 17.4 ± 2.8 |
| B37 | 13.9 ± 2.3 |
| B38 | 33 ± 10 |
| B39 | 38.6 ± 3.2 |
